Bridges are numbered along the chain shown (N, C = ends). Where no end group is shown, it is not given here.
Experiments:
[1] = biological target: rabbit albumin (rabbit) (UniProt P49065); assay: direct binding ELISA, immobilized albumin
[2] = biological target: mouse albumin (mouse) (UniProt P07724); assay: solution binding ELISA; end of the range tied by Table 14 (41 nM)
[3] = biological target: mouse albumin (mouse) (UniProt P07724); assay: solution binding ELISA (Scatchard)
[4] = biological target: rat albumin (rat) (UniProt P02770); assay: solution binding ELISA (Scatchard)
rat albumin (rat), sequence (P02770 25-608 limits assumed): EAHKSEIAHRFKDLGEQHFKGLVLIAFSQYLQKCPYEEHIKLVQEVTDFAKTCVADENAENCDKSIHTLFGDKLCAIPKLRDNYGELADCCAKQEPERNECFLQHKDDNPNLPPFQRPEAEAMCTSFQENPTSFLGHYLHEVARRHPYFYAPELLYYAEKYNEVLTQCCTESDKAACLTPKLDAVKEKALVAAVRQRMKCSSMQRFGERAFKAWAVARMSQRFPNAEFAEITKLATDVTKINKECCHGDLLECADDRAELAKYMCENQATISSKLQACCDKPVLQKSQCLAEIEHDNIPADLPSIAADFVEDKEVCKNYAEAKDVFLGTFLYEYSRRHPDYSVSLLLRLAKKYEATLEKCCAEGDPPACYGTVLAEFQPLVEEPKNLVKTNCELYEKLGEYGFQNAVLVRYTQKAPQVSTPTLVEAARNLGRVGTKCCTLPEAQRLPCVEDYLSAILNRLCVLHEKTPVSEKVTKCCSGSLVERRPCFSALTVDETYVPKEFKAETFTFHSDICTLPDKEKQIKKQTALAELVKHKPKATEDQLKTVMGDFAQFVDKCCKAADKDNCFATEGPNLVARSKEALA

[5] = biological target: rat albumin (rat) (UniProt P02770); assay: Kd for albumin as listed with the PK data (solution binding ELISA)
[6] = biological target: mouse albumin (mouse) (UniProt P07724); assay: direct binding ELISA, immobilized albumin
[7] = biological target: rat albumin (rat) (UniProt P02770); assay: direct binding ELISA, immobilized albumin

rabbit albumin (rabbit), sequence (P49065 25-608 limits assumed): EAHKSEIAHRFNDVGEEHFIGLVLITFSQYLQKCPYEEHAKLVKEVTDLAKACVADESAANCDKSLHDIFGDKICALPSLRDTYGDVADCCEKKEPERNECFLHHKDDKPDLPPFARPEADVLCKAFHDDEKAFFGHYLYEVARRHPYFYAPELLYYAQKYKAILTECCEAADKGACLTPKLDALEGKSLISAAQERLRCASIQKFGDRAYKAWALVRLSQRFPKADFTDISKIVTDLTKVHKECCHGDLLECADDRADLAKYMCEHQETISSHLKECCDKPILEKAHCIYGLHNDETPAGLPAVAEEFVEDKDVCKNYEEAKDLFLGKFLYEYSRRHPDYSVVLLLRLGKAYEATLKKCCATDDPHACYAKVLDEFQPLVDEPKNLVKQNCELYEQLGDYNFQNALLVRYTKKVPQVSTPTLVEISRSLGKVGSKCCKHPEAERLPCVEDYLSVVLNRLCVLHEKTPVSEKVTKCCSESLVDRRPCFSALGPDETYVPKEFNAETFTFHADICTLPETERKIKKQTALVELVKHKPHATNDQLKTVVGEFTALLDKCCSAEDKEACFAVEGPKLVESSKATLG
mouse albumin (mouse), sequence (P07724 25-608 limits assumed): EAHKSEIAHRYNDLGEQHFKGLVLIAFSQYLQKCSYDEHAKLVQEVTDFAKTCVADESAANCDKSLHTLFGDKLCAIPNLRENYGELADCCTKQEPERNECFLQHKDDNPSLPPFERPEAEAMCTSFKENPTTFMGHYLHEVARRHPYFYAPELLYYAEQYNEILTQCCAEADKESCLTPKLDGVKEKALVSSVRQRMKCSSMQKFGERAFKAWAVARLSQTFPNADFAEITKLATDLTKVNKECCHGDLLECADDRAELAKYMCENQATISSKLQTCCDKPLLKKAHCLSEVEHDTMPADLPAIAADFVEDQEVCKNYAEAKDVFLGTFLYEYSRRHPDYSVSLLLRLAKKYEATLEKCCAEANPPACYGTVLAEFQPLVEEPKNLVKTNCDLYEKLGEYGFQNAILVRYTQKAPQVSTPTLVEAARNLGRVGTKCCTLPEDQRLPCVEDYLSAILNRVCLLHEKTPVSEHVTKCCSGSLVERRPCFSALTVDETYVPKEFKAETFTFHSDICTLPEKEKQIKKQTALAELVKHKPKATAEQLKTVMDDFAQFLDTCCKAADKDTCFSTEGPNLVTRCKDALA

EC50 [1] [nM]	Kd [2] [nM]	Kd [3] [nM]	Kd [4] [nM]	Kd [5] [nM]	EC50 [6] [nM]	EC50 [7] [nM]	Binder
> 2000		1250	2430	2500	> 2000	> 1000	{Fab4D5 heavy chain (…CDKTH)}-DICLPRWGCL (Fab, part only; not given: Carrier Fab (trastuzumab), not shown: another chain or arm of the molecule; large carriers, disulfide 3-9) [AB.Fab4D5-H11]
> 2000						8	{Fab4D5 heavy chain (…CDKTH)}-DICLPRWGCLW (Fab, part only; not given: carrier Fab4D5 heavy and light chains, not shown: another chain or arm of the molecule; large carriers, disulfide 3-9) [AB.Fab4D5-H10]

Second part, the binder before the results:

Binder	EC50 [1] [nM]	Kd [2] [nM]	Kd [3] [nM]	Kd [4] [nM]	Kd [5] [nM]	EC50 [6] [nM]	EC50 [7] [nM]
{Fab4D5 heavy chain (…CDKTH)}-DICLPRWGCLWED (Fab, part only; not given: carrier Fab4D5 heavy and light chains, not shown: another chain or arm of the molecule; large carriers, disulfide 3-9) [AB.Fab4D5-H4]	500						
{Fab4D5 heavy chain (…CDKTH)}-IEDICLPRWGCLWE (Fab, part only; not given: carrier Fab4D5 heavy and light chains, not shown: another chain or arm of the molecule; large carriers, disulfide 5-11) [AB.Fab4D5-H8]	500	40					
